Assay results as given in the supplement of paper PMC9112550, “Optimization of the antimicrobial peptide Bac7 by deep mutational scanning” (BMC Biology, 2022).

Tested on: Escherichia coli TOP10
Experiment: shrunken log2 fold change of peptide-encoding DNA abundance (4.5 h post-induction vs induction); higher = less antimicrobial activity (less host growth inhibition)
Settings: time post-induction: 4.5 h; library: site-saturation at positions 5, 18, 19, 20
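Further: peptides expressed intracellularly from a pBAD plasmid library in pooled LB shake-flask culture, induced with 0.3% L-arabinose, DNA abundance read by NGS, three biological replicates, DESeq2 with apeglm shrinkage.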

Sequence | shrunken log2 fold change
RRIRARPPRLPRPRPRPAPPPRP | 1.27
RRIRGRPPRLPRPRPRPFCLPRP | 0.229
RRIRCRPPRLPRPRPRPASFPRP | -0.176
RRIRFRPPRLPRPRPRPAYAPRP | 0.113
RRIRYRPPRLPRPRPRPQYVPRP | -0.0294
RRIRYRPPRLPRPRPRPFQDPRP | -0.139
RRIRPRPPRLPRPRPRPVSEPRP | -0.0288
RRIRSRPPRLPRPRPRPNEMPRP | -0.252
RRIRRRPPRLPRPRPRPELMPRP | 0.0537
RRIRIRPPRLPRPRPRPFGQPRP | -0.259
RRIRYRPPRLPRPRPRPYYEPRP | -0.28
RRIRRRPPRLPRPRPRPATHPRP | 0.434
RRIRNRPPRLPRPRPRPCRFPRP | -0.0153
RRIRARPPRLPRPRPRPVNPPRP | -0.00864
RRIRERPPRLPRPRPRPIWPPRP | 0.0406
RRIRERPPRLPRPRPRPSHNPRP | -0.903
RRIRERPPRLPRPRPRPNLRPRP | 0.0952
RRIRYRPPRLPRPRPRPPNAPRP | 0.153
RRIRGRPPRLPRPRPRPMQFPRP | 0.184
RRIRKRPPRLPRPRPRPECTPRP | 3.42
RRIRLRPPRLPRPRPRPAQRPRP | 0.172
RRIRERPPRLPRPRPRPDHMPRP | -0.0199
RRIRCRPPRLPRPRPRPYPGPRP | -0.0268
RRIRSRPPRLPRPRPRPWWNPRP | -0.0574
RRIRPRPPRLPRPRPRPNVKPRP | -0.475

Sequence | shrunken log2 fold change
RRIRSRPPRLPRPRPRPTGTPRP | -0.0039
RRIRGRPPRLPRPRPRPPMCPRP | 0.525
RRIRYRPPRLPRPRPRPRVWPRP | 1.85
RRIRKRPPRLPRPRPRPAITPRP | 0.613
RRIRIRPPRLPRPRPRPPTPPRP | 0.238
RRIRIRPPRLPRPRPRPWYFPRP | -0.19
RRIRKRPPRLPRPRPRPPPRPRP | 1.32
RRIRGRPPRLPRPRPRPRFRPRP | 0.3
RRIRSRPPRLPRPRPRPWGFPRP | -0.0589
RRIRMRPPRLPRPRPRPLMKPRP | 0.313
RRIRKRPPRLPRPRPRPAYFPRP | -0.0128
RRIRNRPPRLPRPRPRPNVIPRP | -0.261
RRIRRRPPRLPRPRPRPRPFPRP | 0.699
RRIRQRPPRLPRPRPRPHYMPRP | -0.474
RRIRHRPPRLPRPRPRPMNNPRP | -0.759
RRIRVRPPRLPRPRPRPLFCPRP | -0.103
RRIRQRPPRLPRPRPRPFDIPRP | -0.16
RRIRKRPPRLPRPRPRPCFCPRP | 0.0588
RRIRYRPPRLPRPRPRPCKAPRP | -0.073
RRIRHRPPRLPRPRPRPSNWPRP | -0.106
RRIRLRPPRLPRPRPRPSIYPRP | -0.801
RRIRCRPPRLPRPRPRPVRGPRP | 0.59
RRIRMRPPRLPRPRPRPKTWPRP | 0.602
RRIRKRPPRLPRPRPRPADDPRP | 0.799
RRIRRRPPRLPRPRPRPGEKPRP | 0.0687

Sequence | shrunken log2 fold change
RRIRIRPPRLPRPRPRPYITPRP | -1.34
RRIRTRPPRLPRPRPRPYNAPRP | -1.3
RRIRIRPPRLPRPRPRPTDTPRP | -1.86
RRIRARPPRLPRPRPRPVLHPRP | 0.288
RRIRNRPPRLPRPRPRPTPCPRP | 0.043
RRIRDRPPRLPRPRPRPKIHPRP | -0.214
RRIRLRPPRLPRPRPRPSVPPRP | -0.185
RRIRLRPPRLPRPRPRPFLWPRP | -0.314
RRIRWRPPRLPRPRPRPDDSPRP | -0.183
RRIRYRPPRLPRPRPRPYLDPRP | 0.0821
RRIRNRPPRLPRPRPRPAPVPRP | 0.406
RRIRTRPPRLPRPRPRPWSCPRP | -0.29
RRIRDRPPRLPRPRPRPCAPPRP | -0.0226
RRIRCRPPRLPRPRPRPVDQPRP | -0.304
RRIRERPPRLPRPRPRPWYFPRP | -0.171
RRIRARPPRLPRPRPRPYHHPRP | -0.826
RRIRERPPRLPRPRPRPLERPRP | -0.191
RRIRDRPPRLPRPRPRPQRYPRP | -0.0811
RRIRPRPPRLPRPRPRPFFPPRP | -0.135
RRIRMRPPRLPRPRPRPVVGPRP | 0.448
RRIRVRPPRLPRPRPRPPCLPRP | -0.108
RRIRIRPPRLPRPRPRPNGTPRP | -0.201
RRIRIRPPRLPRPRPRPKCYPRP | -0.00654
RRIRHRPPRLPRPRPRPRSRPRP | -0.132
RRIRPRPPRLPRPRPRPFREPRP | 0.261
